From patent US20150050278A1

What was measured:
[1] = molecular target: gp140; assay: ELISA (FIG. 10)
[2] = molecular target: gp140; assay: ELISA on gp140, OD405
[3] = molecular target: nucleolin (UniProt P19338); assay: ELISA (FIG. 11)

B1: gg37 (designed binder)
chain: APELLGGPSVFLFPPTPKDTLMISRTPEVTCVVVDVSHEDPEVKFNWYVDGVEVHNAKTKPREEQYNSTYGVSSGLTVLHQDWLNGKEYKCKVSNKALPAPIEKTISKAKGQPREPQVYTSPPSRDELTKNQVSLRCHVKGFYPSDIAVEWESNGQGARGGMNWFDPWVPVLDSDGSFFLYGKLTVDKSRWQQGNVFSCSVMHEALHNHYTQKSLSLSPGK
- affinity [1]: 50 nM
- EC50 (read off the curve) [2]: 80 nM

B2: gn1 (designed binder)
chain: APELLGGPSVFLFPPSPKDTLMISRTPEVTCVVVDVSHEDPEVKFNWYVDGVEVHNAKTKPREEQYNSTYSVASLLTVLHQDWLNGKEYKCKVSNKALPAPIEKTISKAKGQPREPQVYTSPPSRDELTKNQVSLRCHVKGFYPSDIAVEWESNGQGAKGSSGSTWGYGMDVWVPVLDSDSSFFLYSKLTVDKSRWQQGNVFSCSVMHEALHNHYTQKSLSLSPGK
- affinity [3]: 50 nM
